# The supplement of paper PMC7125110
# ± gives the standard error. Variants at the floor of the assay were thinned out.
# B1: glmS ribozyme (parent)
# chain: AUAAAAGCGCCAGAACUACAGAAAUGUAGUUGACGAGGAGGAGGUUUAUCGAAUUUUCGGCGGAUGCCUCCAAA
# Columns and labels:
# Conditions in all cases: with glucosamine-6-phosphate
# glucosamine-6-phosphate [1] = variants of: B1; test: self-cleavage kobs at 40 uM GlcN6P; higher = faster cleavage; RNA array
# How it was run: (§1)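 Using a hybridised Cy3 probe at 37 °C, barcoded ribozyme variants transcribed in situ by E. coli RNA polymerase on sequenced MiSeq chips were monitored across tiles imaged over ~14 h. The flow contained glucosamine-6-phosphate from 40 μM to 10 mM in HEPES/KCl/Mg(OAc)2 buffer. Signals were normalised to baseline and to non-cleaving reference variants before per-tile medians were fit to one- or two-exponential decays to yield kobs. Weighted Michaelis–Menten fits across concentrations gave kcat and KM.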
# glucosamine-6-phosphate [2] = variants of: B1; test: self-cleavage kobs at 160 uM GlcN6P; higher = faster cleavage; RNA array
# How it was run: as §1
# glucosamine-6-phosphate [3] = variants of: B1; test: self-cleavage kobs at 640 uM GlcN6P; higher = faster cleavage; RNA array
# How it was run: as §1
# glucosamine-6-phosphate [4] = variants of: B1; test: self-cleavage kobs at 2500 uM GlcN6P; higher = faster cleavage; RNA array
# How it was run: as §1
# glucosamine-6-phosphate [5] = variants of: B1; test: self-cleavage kobs at 10000 uM GlcN6P; higher = faster cleavage; RNA array
# How it was run: as §1
Variant,self-cleavage kobs at 40 uM GlcN6P (glucosamine-6-phosphate [1]),self-cleavage kobs at 160 uM GlcN6P (glucosamine-6-phosphate [2]),self-cleavage kobs at 640 uM GlcN6P (glucosamine-6-phosphate [3]),self-cleavage kobs at 2500 uM GlcN6P (glucosamine-6-phosphate [4]),self-cleavage kobs at 10000 uM GlcN6P (glucosamine-6-phosphate [5])
A15G U31C,0.000207 ± 3.4e-05 s⁻¹,0.00035 ± 8.7e-05 s⁻¹,0.00208 ± 0.00026 s⁻¹,0.00542 ± 0.0013 s⁻¹,0.0123 ± 0.0028 s⁻¹
A15G G63C,< 1e-05 s⁻¹,< 1e-05 s⁻¹,< 1e-05 s⁻¹,< 1e-05 s⁻¹,< 1e-05 s⁻¹
A39G U47C,0.000381 ± 6e-05 s⁻¹,–,0.00353 ± 0.0012 s⁻¹,0.00728 ± 0.0026 s⁻¹,0.0217 ± 0.0054 s⁻¹
G43U A48C,< 1e-05 s⁻¹,< 1e-05 s⁻¹,< 1e-05 s⁻¹,< 1e-05 s⁻¹,< 1e-05 s⁻¹
G37A A53G,0.000101 ± 2.3e-05 s⁻¹,0.000212 ± 3.8e-05 s⁻¹,0.000708 ± 0.00015 s⁻¹,0.00163 ± 0.00063 s⁻¹,0.00615 ± 0.0014 s⁻¹
G37U A52U,< 1e-05 s⁻¹,–,< 1e-05 s⁻¹,< 1e-05 s⁻¹,–
A15U A42G G62U,< 1e-05 s⁻¹,–,–,< 1e-05 s⁻¹,< 1e-05 s⁻¹
A12U A53U,0.00177 ± 0.00024 s⁻¹,0.00421 ± 0.00071 s⁻¹,0.0159 ± 0.0029 s⁻¹,0.0274 ± 0.007 s⁻¹,0.112 ± 0.036 s⁻¹
G37C U56G,< 1e-05 s⁻¹,< 1e-05 s⁻¹,–,–,–
A36G A52U,< 1e-05 s⁻¹,< 1e-05 s⁻¹,< 1e-05 s⁻¹,< 1e-05 s⁻¹,< 1e-05 s⁻¹
G7A A48U U56G,< 1e-05 s⁻¹,< 1e-05 s⁻¹,< 1e-05 s⁻¹,–,< 1e-05 s⁻¹
A14C U30G C50A G60U G63U,< 1e-05 s⁻¹,–,–,–,< 1e-05 s⁻¹
G44C G51U,< 1e-05 s⁻¹,–,–,< 1e-05 s⁻¹,< 1e-05 s⁻¹
A6G A52G,< 1e-05 s⁻¹,< 1e-05 s⁻¹,–,–,–
C10U G41A,< 1e-05 s⁻¹,< 1e-05 s⁻¹,< 1e-05 s⁻¹,< 1e-05 s⁻¹,< 1e-05 s⁻¹
U30A C68A,< 1e-05 s⁻¹,–,–,–,–
A42C C61A,< 1e-05 s⁻¹,< 1e-05 s⁻¹,–,< 1e-05 s⁻¹,< 1e-05 s⁻¹
